# B1: Protein ERGIC-53 (Homo sapiens), P49257 (parent)
# chain: MAGSRQRGLRARVRPLFCALLLSLGRFVRGDGVGGDPAVALPHRRFEYKYSFKGPHLVQSDGTVPFWAHAGNAIPSSDQIRVAPSLKSQRGSVWTKTKAAFENWEVEVTFRVTGRGRIGADGLAIWYAENQGLEGPVFGSADLWNGVGIFFDSFDNDGKKNNPAIVIIGNNGQIHYDHQNDGASQALASCQRDFRNKPYPVRAKITYYQNTLTVMINNGFTPDKNDYEFCAKVENMIIPAQGHFGISAATGGLADDHDVLSFLTFQLTEPGKEPPTPDKEISEKEKEKYQEEFEHFQQELDKKKEEFQKGHPDLQGQPAEEIFESVGDRELRQVFEGQNRIHLEIKQLNRQLDMILDEQRRYVSSLTEEISKRGAGMPGQHGQITQQELDTVVKTQHEILRQVNEMKNSMSETVRLVSGMQHPGSAGGVYETTQHFIDIKEHLHIVKRDIDNLVQRNMPSNEKPKCPELPPFPSCLSTVHFIIFVVVQTVLFIGYIMYRSQQEAAAKKFF
# partner: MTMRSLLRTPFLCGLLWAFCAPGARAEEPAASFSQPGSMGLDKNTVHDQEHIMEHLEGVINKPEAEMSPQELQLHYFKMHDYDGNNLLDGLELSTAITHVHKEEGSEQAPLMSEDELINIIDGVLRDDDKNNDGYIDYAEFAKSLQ
# B2: Multiple coagulation factor deficiency protein 2 (Homo sapiens), Q8NI22 (parent)
# chain: B1 partner
# partner: B1 chain
# Variants of: B1
# Conditions: with mcfd2_human MCFD2, Q8NI22
row,Variant,effect of a mutation on the interaction
1,MAGSRQRGLRARVRPLFCALLLSLGRFVRGDGVGGDPAVALPHRAFEYKYSFKGPHLVQSDGTVPFWAHAGNAIPSSDQIRVAPSLKSQRGSVWTKTKAAFENWEVEVTFRVTGRGRIGADGLAIWYAENQGLEGPVFGSADLWNGVGIFFDSFDNDGKKNNPAIVIIGNNGQIHYDHQNDGASQALASCQRDFRNKPYPVRAKITYYQNTLTVMINNGFTPDKNDYEFCAKVENMIIPAQGHFGISAATGGLADDHDVLSFLTFQLTEPGKEPPTPDKEISEKEKEKYQEEFEHFQQELDKKKEEFQKGHPDLQGQPAEEIFESVGDRELRQVFEGQNRIHLEIKQLNRQLDMILDEQRRYVSSLTEEISKRGAGMPGQHGQITQQELDTVVKTQHEILRQVNEMKNSMSETVRLVSGMQHPGSAGGVYETTQHFIDIKEHLHIVKRDIDNLVQRNMPSNEKPKCPELPPFPSCLSTVHFIIFVVVQTVLFIGYIMYRSQQEAAAKKFF [R45A],decreasing interaction

# Variants of: B2
# Conditions: with lman1_human LMAN1, P49257
row,Variant,effect of a mutation on the interaction
1,MTMRSLLRTPFLCGLLWAFCAPGARAEEPAASFSQPGSMGLDKNTVHDQEHIMEHLEGVINKPEAEMSPQELQLHYFKMHDYDGNNLLAGLELSTAITHVHKEEGSEQAPLMSEDELINIIDGVLRDDDKNNDGYIDYAEFAKSLQ [D89A],disrupting interaction

# Variants of: B2
# Conditions: with lman1_human LMAN1, P49257
# Remark: another data set of the same source
row,Variant,effect of a mutation on the interaction
1,MTMRSLLRTPFLCGLLWAFCAPGARAEEPAASFSQPGSMGLDKNTVHDQEHIMEHLEGVINKPEAEMSPQELQLHYFKMHDYDGNNLLDGLELSTAITHVHKEEGSEQAPLMSEDELINIIVGVLRDDDKNNDGYIDYAEFAKSLQ [D122V],disrupting interaction

# Variants of: B2
# Conditions: with lman1_human LMAN1, P49257
# Remark: another data set of the same source
row,Variant,effect of a mutation on the interaction
1,MTMRSLLRTPFLCGLLWAFCAPGARAEEPAASFSQPGSMGLDKNTVHDQEHIMEHLEGVINKPEAEMSPQELQLHYFKMHDYDGNNLLDGLELSTAITHVHKEEGSEQAPLMSEDELINIIVGVLRDDDKNNDGYIDYAEFAKSLQ [D122V],decreasing interaction

# From IntAct's records for PubMed 20142513
